Where a chain is given by its changes, count along the chain named.
T1: human Nectin-4 (on cells) (human, UniProt Q96NY8 32-510)
T1 construct: also called PVRL4; NECT4_HUMAN
T1 sequence: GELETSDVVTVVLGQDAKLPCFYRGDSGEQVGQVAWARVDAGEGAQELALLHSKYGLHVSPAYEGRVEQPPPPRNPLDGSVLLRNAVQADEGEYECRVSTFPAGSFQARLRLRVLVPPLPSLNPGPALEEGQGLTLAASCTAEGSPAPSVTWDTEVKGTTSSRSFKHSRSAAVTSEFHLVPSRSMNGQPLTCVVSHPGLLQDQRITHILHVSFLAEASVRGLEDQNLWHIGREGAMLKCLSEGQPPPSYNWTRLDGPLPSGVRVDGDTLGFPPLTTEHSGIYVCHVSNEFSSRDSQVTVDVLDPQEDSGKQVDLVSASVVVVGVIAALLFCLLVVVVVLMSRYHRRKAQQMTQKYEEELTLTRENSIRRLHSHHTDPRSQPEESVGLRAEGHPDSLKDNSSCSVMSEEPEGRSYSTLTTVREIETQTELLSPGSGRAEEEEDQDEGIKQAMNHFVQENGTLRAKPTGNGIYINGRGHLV

T2: cynomolgus monkey Nectin-4 (cynomolgus monkey, UniProt A0A2K5WES1 32-510)
T2 construct: whole, on cells; Transiently expressed on CHO-K1 cells; also called cynomolgus Nectin-4
T2 sequence: T1 sequence with V39A, I230V, A437T

T3: recombinant purified human Nectin-4-Fc fusion protein (human, UniProt Q96NY8 32-349)
T3 construct: Bought ('Aero Biosystems' as printed); not shown: Fc part of the bought fusion protein; captured by anti-human IgG Fc sensors
T3 sequence: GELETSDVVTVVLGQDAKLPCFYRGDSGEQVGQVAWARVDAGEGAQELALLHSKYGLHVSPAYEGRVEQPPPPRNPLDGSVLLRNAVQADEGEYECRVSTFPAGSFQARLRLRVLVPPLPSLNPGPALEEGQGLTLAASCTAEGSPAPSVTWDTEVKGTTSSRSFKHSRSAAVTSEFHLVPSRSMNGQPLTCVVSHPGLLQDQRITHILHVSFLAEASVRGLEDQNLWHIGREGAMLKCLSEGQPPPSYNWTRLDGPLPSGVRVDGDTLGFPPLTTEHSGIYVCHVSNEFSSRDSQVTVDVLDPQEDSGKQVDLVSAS

T4: mouse Nectin-4 (mouse, UniProt Q8R007 31-508)
T4 construct: whole, on cells; Transiently expressed on CHO-K1 cells; also called murine Nectin-4
T4 sequence (looked up): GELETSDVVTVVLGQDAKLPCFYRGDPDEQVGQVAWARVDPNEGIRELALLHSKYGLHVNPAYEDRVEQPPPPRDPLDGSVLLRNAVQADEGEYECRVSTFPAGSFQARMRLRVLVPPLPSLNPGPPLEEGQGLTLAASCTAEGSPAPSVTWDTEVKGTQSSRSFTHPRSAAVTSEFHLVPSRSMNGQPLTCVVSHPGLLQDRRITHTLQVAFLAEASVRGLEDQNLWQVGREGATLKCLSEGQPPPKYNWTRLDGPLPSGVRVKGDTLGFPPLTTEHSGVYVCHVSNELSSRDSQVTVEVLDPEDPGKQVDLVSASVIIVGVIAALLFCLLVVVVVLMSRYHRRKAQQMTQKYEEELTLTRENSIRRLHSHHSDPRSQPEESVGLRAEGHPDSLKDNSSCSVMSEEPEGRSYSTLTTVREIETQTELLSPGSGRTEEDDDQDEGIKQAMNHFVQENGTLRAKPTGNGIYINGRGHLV

B1: LV1184 (VHH)
VHH: EVQLVESGGGLVQAGGSLRLSCAASGSISSINLMGWFRQAPAKQRELVTSISPGGSVRYADSVKGRFTISRDVAKNTVDLQMNSLKPEDTAVYYCAAESERTYYFDSWGQGTQVTVSS
notes: Llama-derived anti-Nectin-4 VHH
B2: LV1181 (VHH)
VHH: EVQLVESGGGLVQAGGSLRLSCAASGSISSINLMGWHRQAPGKQRELVATITRGGSTNYADSVKGRFTISRDNGKNTVYLQMNSLKPEDTAAYYCVDVEPSGMGWRDYWGQGTQVTVSS
notes: as for B1
B3: LV1185 (VHH)
VHH: EVQLVESGGGLVQAGGSLRLSCAASRSTFSLNIMGWYRQAPGKQREYVATITTGGSTNYADSVRGRFTISRDNAEDTVYLQMNSLKPEDTAVYYCTAELVRRGPTTYWGRGTQVTVSS
notes: as for B1
B4: LV1186 (VHH)
VHH: B3 VHH with T53S, D76N, N83D
notes: as for B1
B5: LV1187 (VHH)
VHH: EVQLVESGGGLVQAGGFLRLSCAASRSVFRINVMGWYRQAPGKQRELVAGITSGGSRRLADSVKGRFTISRDNAKNTVYLQMNSLKPEDTAVYYCFAEAVVGDEPYWGQGTQVTVSS
notes: as for B1
B6: LV1178 (VHH)
VHH: EVQLVESGGALVQAGGSLRLSCSVSGLTASRLTMGWFRQAPGKEREFVARVYASGGLTDYADSVKGRFTISRDNAKNTVYLQMNSLEPEDTAVYYCVAGLWADMRTMTSTRGYWGQGTQVTVSS
notes: Llama-derived anti-Nectin-4 VHH from phage display
B7: LV1183 (VHH)
VHH: EVQLVESGGGLVQAGGSLRLSCAASGSIFDINLMGWYRQAPGKLRELVASITRGGSTWYVDSVKGRFIISRDSAKNTVYLQMNSLKPGDTAVYYCAAESIGSYTFDRWGQGTQVTVSS
notes: as for B1
B8: LV1184xVδ2 (bispecific antibody)
chain: EVQLVESGGGLVQAGGSLRLSCAASGSISSINLMGWFRQAPAKQRELVTSISPGGSVRYADSVKGRFTISRDVAKNTVDLQMNSLKPEDTAVYYCAAESERTYYFDSWGQGTQVTVSSGGGGSEVQLVESGGGLVQAGGSLRLSCAASGRPFSNYAMGWFRQAPGKEREFVAAISWSGGSTSYADSVKGRFTISRDNAKNTVYLQMNSPKPEDTAIYYCAAQFSGADYGFGRLGIRGYEYDYWGQGTQVTVSS
notes: Orientation N-term-anti-Nectin-4 VHH-linker-anti-Vδ2 VHH (5C8); no Fc; also called Nectin-4xVδ2 bispecific VHH
B9: LV1181xVδ2 (bispecific antibody)
chain: EVQLVESGGGLVQAGGSLRLSCAASGSISSINLMGWHRQAPGKQRELVATITRGGSTNYADSVKGRFTISRDNGKNTVYLQMNSLKPEDTAAYYCVDVEPSGMGWRDYWGQGTQVTVSSGGGGSEVQLVESGGGLVQAGGSLRLSCAASGRPFSNYAMGWFRQAPGKEREFVAAISWSGGSTSYADSVKGRFTISRDNAKNTVYLQMNSPKPEDTAIYYCAAQFSGADYGFGRLGIRGYEYDYWGQGTQVTVSS
notes: as for B8
B10: LV1185xVδ2 (bispecific antibody)
chain: EVQLVESGGGLVQAGGSLRLSCAASRSTFSLNIMGWYRQAPGKQREYVATITTGGSTNYADSVRGRFTISRDNAEDTVYLQMNSLKPEDTAVYYCTAELVRRGPTTYWGRGTQVTVSSGGGGSEVQLVESGGGLVQAGGSLRLSCAASGRPFSNYAMGWFRQAPGKEREFVAAISWSGGSTSYADSVKGRFTISRDNAKNTVYLQMNSPKPEDTAIYYCAAQFSGADYGFGRLGIRGYEYDYWGQGTQVTVSS
notes: as for B8
B11: LV1186xVδ2 (bispecific antibody)
chain: B10 chain with T53S, D76N, N83D
notes: as for B8

The binders below were run against T1, human Nectin-4 (on cells) (assay: flow cytometry on BeWo cells (endogenous Nectin-4)).
Work on B1 yielded an EC50 of 0.3 nM. With B2 the EC50 was 0.4 nM.

These binders were tested against T2, cynomolgus monkey Nectin-4 (assay: cell-based ELISA on CHO-K1 cells expressing cynomolgus monkey Nectin-4).
B1: binds. B2: binds. B3: binds. B4: binds. B5: binds. B6: binds. B7: binds.

These binders were tested against T3, recombinant purified human Nectin-4-Fc … (assay: BLI (Octet), Nectin-4-Fc on anti-human Fc sensors, run 2).
Binder B1 has a Kd of 0.51 nM. In the case of B2, the Kd is reported as 0.76 nM. B3 gave a Kd of 2.34 nM. In the case of B4, the Kd is reported as 3.94 nM. For B5, the Kd was 6.09 nM. With B6 the Kd was 8.02 nM. B7 gave a Kd of 7.98 nM.

The binders below were run against T3, recombinant purified human Nectin-4-Fc … (assay: BLI (Octet), Nectin-4-Fc on anti-human Fc sensors, run 1).
B8 was tested, and the Kd was 0.07 nM, the koff was 6.33e-05 s⁻¹ and the kon was 973000 M⁻¹ s⁻¹. Binder B9 has a Kd of 0.26 nM, a koff of 0.000266 s⁻¹ and a kon of 1.04e+06 M⁻¹ s⁻¹. B10 was tested, and the Kd was 2 nM, the koff was 0.00127 s⁻¹ and the kon was 642000 M⁻¹ s⁻¹. Work on B11 yielded a Kd of 2.3 nM, a koff of 0.00165 s⁻¹ and a kon of 731000 M⁻¹ s⁻¹.

These binders were tested against T1, human Nectin-4 (on cells) (assay: flow cytometry on HT-29 cells (endogenous Nectin-4)).
Binder B1 has an EC50 of 1.2 nM. Work on B2 yielded an EC50 of 1.5 nM.

Biological target: T3, recombinant purified human Nectin-4-Fc …
Test: BLI (Octet), Nectin-4-Fc on anti-human Fc sensors, run 1
Remark: another data set of the same source
Work on B1 yielded a Kd of 0.51 nM. B2 showed a Kd of 0.8 nM. In the case of B3, the Kd is reported as 3.61 nM. With B4 the Kd was 3.93 nM. For B5, the Kd was 5.2 nM. With B7 the Kd was 5.7 nM.

Each binder was assayed against T4, mouse Nectin-4 (assay: cell-based ELISA on CHO-K1 cells expressing mouse Nectin-4).
B1: binds. B2: binds. B3: binds. B4: binds. B5: binds.

Biological target: T3, recombinant purified human Nectin-4-Fc …
Test: BLI (Octet), Nectin-4-Fc on anti-human Fc sensors, run 2
Remark: another data set of the same source
B8 gave a Kd of 0.18 nM, a koff of 0.000149 s⁻¹ and a kon of 844000 M⁻¹ s⁻¹. In the case of B9, the Kd is reported as 0.37 nM, the koff is reported as 0.0003 s⁻¹ and the kon is reported as 818000 M⁻¹ s⁻¹. B10 was tested, and the Kd was 2.4 nM, the koff was 0.00144 s⁻¹ and the kon was 593000 M⁻¹ s⁻¹. For B11, the Kd was 2.6 nM, the koff was 0.0017 s⁻¹ and the kon was 660000 M⁻¹ s⁻¹.

The binders below were run against T1, human Nectin-4 (on cells) (assay: flow cytometry on A431 cells (endogenous Nectin-4)).
Binder B1 has an EC50 of 0.24 nM. B2 was tested, and the EC50 was 0.33 nM.

What follows are binders tested against T4, mouse Nectin-4 (assay: cell-based ELISA on transfected CHO-K1 cells).
B6: no binding (tested: 0.032 to 500 nM). B7: no binding (tested: 0.032 to 500 nM).

— patent publication EP4438624A1 (LAVA Therapeutics N.V., dated 2024)
